Assay results as given in patent publication US20190017997.

T1: CRTC1 (CREB-regulated transcription coactivator 1)
T1 chain: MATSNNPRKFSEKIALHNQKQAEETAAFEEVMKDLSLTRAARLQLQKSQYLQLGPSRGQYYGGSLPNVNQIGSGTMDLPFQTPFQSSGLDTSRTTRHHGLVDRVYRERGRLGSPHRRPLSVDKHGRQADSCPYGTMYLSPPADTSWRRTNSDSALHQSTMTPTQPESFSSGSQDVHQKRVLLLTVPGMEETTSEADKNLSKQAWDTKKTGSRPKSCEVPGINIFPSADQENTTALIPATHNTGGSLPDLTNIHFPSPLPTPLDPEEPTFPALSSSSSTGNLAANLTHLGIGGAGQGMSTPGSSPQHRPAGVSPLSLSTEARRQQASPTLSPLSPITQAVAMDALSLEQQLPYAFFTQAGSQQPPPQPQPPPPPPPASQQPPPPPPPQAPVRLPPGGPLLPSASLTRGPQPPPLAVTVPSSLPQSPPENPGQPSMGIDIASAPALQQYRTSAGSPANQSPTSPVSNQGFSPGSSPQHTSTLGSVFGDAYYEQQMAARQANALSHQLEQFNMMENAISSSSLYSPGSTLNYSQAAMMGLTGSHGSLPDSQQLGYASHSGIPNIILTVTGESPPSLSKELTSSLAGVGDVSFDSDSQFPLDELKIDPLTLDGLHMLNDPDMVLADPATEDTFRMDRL

T2: CRTC1 S151A/S215A
T2 chain: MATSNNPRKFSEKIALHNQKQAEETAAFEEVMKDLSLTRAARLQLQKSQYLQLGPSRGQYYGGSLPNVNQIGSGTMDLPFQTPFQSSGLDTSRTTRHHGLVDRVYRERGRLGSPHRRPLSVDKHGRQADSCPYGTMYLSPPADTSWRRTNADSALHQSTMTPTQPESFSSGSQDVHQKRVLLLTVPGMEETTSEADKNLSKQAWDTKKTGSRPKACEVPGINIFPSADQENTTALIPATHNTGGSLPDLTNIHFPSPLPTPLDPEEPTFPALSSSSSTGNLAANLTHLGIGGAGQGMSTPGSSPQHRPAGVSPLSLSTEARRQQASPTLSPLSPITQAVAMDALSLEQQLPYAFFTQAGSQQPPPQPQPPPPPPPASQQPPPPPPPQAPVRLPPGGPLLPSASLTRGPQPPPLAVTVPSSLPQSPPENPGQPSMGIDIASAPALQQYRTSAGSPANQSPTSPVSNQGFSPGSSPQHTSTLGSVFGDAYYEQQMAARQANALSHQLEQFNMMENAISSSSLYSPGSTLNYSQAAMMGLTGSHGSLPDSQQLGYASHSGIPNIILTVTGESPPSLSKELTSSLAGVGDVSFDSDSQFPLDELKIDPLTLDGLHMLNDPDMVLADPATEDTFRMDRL

T3: CRTC1 S151A/T449A
T3 chain: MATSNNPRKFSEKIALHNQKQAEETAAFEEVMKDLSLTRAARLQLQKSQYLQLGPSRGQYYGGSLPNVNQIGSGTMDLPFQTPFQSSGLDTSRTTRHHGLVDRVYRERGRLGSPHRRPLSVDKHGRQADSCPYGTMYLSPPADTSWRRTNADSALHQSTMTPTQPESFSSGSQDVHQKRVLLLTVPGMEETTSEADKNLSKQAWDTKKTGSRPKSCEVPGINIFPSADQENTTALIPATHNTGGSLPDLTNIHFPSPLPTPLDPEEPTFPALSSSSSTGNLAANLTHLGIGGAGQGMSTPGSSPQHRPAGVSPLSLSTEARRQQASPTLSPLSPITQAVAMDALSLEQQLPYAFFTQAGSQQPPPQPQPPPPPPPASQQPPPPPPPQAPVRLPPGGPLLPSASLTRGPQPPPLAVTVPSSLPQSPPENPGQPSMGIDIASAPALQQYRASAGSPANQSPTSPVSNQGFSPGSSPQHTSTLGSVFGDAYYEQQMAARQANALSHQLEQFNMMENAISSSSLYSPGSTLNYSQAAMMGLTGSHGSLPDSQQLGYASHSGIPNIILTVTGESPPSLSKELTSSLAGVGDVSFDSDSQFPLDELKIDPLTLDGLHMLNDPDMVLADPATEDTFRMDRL

T4: CRTC1 S151A
T4 chain: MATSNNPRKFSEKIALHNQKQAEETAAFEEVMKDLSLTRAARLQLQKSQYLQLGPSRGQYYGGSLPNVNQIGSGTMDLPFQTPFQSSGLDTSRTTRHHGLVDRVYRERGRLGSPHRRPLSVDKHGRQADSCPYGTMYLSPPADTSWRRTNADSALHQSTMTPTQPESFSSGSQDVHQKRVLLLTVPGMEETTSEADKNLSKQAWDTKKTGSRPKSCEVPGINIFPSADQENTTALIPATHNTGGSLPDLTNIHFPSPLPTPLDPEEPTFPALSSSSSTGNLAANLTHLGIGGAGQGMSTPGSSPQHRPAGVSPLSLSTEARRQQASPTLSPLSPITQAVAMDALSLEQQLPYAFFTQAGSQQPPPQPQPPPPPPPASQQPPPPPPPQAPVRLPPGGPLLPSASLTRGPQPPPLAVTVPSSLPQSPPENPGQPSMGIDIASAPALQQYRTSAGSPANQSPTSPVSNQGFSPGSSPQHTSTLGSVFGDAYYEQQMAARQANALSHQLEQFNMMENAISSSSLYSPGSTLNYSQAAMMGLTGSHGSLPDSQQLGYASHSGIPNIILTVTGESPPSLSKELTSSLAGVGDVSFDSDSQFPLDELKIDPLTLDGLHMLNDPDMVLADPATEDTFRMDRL


Assays:
[1] = biological target: CREB (cyclic adenosine 3',5'-monophosphate response element-binding protein), P16220
CREB (cyclic adenosine 3',5'-monophosphate response element-binding protein), P16220, sequence (P16220 whole entry): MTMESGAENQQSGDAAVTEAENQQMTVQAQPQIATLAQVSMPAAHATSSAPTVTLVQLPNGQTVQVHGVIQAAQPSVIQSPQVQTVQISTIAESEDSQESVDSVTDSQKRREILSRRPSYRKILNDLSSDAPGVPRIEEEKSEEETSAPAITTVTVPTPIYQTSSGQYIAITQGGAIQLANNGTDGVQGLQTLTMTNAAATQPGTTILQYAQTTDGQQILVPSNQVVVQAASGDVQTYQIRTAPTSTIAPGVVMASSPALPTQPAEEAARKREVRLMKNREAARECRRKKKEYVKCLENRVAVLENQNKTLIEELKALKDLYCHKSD

[2] = biological target: T1, CRTC1 (CREB-regulated transcription …)
CRTC1 S151A/S215A = biological target: T2, CRTC1 S151A/S215A
CRTC1 S151A/T449A = biological target: T3, CRTC1 S151A/T449A
CRTC1 S151A = biological target: T4, CRTC1 S151A

Row | Protein | phosphorylation of CREB [1] | phosphorylation of CRTC1 (in vitro kinase assay) [2] | phosphorylation by PAK4 (kinase analysis of CRTC1 variants) (CRTC1 S151A/S215A) | phosphorylation by PAK4 (kinase analysis of CRTC1 variants) (CRTC1 S151A/T449A) | phosphorylation by PAK4 (kinase analysis of CRTC1 variants) (CRTC1 S151A) | substrate of the kinase (kinase analysis) [2]
1 | PAK4 (p21-activated kinase 4) (protein) MFGKRKKRVEISAPSNFEHRVHTGFDQHEQKFTGLPRQWQSLIEESARRPKPLVDPACITSIQPGAPKTIVRGSKGAKDGALTLLLDEFENMSVTRSNSLRRDSPPPPARARQENGMPEEPATTARGGPGKAGSRGRFAGHSEAGGGSGDRRRAGPEKRPKSSREGSGGPQESSRDKRPLSGPDVGTPQPAGLASGAKLAAGRPFNTYPRADTDHPSRGAQGEPHDVAPNGPSAGGLAIPQSSSSSSRPPTRARGAPSPGVLGPHASEPQLAPPACTPAAPAVPGPPGPRSPQREPQRVSHEQFRAALQLVVDPGDPRSYLDNFIKIGEGSTGIVCIATVRSSGKLVAVKKMDLRKQQRRELLFNEVVIMRDYQHENVVEMYNSYLVGDELWVVMEFLEGGALTDIVTHTRMNEEQIAAVCLAVLQALSVLHAQGVIHRDIKSDSILLTHDGRVKLSDFGFCAQVSKEVPRRKSLVGTPYWMAPELISRLPYGPEVDIWSLGIMVIEMVDGEPPYFNEPPLKAMKMIRDNLPPRLKNLHKVSPSLKGFLDRLLVRDPAQRATAAELLKHPFLAKAGPPASIVPLMRQNRTR | PAK4 does not induce phosphorylation of CREB | PAK4 phosphorylates CRTC1 | CRTC1^S151A/S215A, was not phosphorylated | CRTC1^S151A and CRTC1^S151A/T449A were slightly phosphorylated | CRTC1^S151A and CRTC1^S151A/T449A were slightly phosphorylated | –
2 | caPAK4 (PAK4 S445N/S474E, constitutively active PAK4) (protein) MFGKRKKRVEISAPSNFEHRVHTGFDQHEQKFTGLPRQWQSLIEESARRPKPLVDPACITSIQPGAPKTIVRGSKGAKDGALTLLLDEFENMSVTRSNSLRRDSPPPPARARQENGMPEEPATTARGGPGKAGSRGRFAGHSEAGGGSGDRRRAGPEKRPKSSREGSGGPQESSRDKRPLSGPDVGTPQPAGLASGAKLAAGRPFNTYPRADTDHPSRGAQGEPHDVAPNGPSAGGLAIPQSSSSSSRPPTRARGAPSPGVLGPHASEPQLAPPACTPAAPAVPGPPGPRSPQREPQRVSHEQFRAALQLVVDPGDPRSYLDNFIKIGEGSTGIVCIATVRSSGKLVAVKKMDLRKQQRRELLFNEVVIMRDYQHENVVEMYNSYLVGDELWVVMEFLEGGALTDIVTHTRMNEEQIAAVCLAVLQALSVLHAQGVIHRDIKSDNILLTHDGRVKLSDFGFCAQVSKEVPRRKELVGTPYWMAPELISRLPYGPEVDIWSLGIMVIEMVDGEPPYFNEPPLKAMKMIRDNLPPRLKNLHKVSPSLKGFLDRLLVRDPAQRATAAELLKHPFLAKAGPPASIVPLMRQNRTR | – | – | – | – | – | CRTC1 is a substrate of caPAK4
